According to article PMC8866402:

Assays:
[1] = biological target: recombinant mouse TGF-β1 (mouse)
[2] = biological target: recombinant human TGF-β1 produced in-house (human)
Sequence of recombinant human TGF-β1 produced in-house (human) (P01137 279-390): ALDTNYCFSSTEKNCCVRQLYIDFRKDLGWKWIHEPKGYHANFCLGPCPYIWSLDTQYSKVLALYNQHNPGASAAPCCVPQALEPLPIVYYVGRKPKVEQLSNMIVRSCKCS

Sequence of recombinant mouse TGF-β1 (mouse) (P04202 279-390): as the sequence (P01137 279-390) above, with A75S counted along it

B1: strep-tag-fortilin (recombinant human fortilin with an N-terminal Strep-tag II) (natural protein)
chain: MIIYRDLISHDEMFSDIYKIREIADGLCLEVEGKMVSRTEGNIDDSLIGGNASAEGPEGEGTESTVITGVDIVMNHHLQETSFTKEAYKKYIKDYMKSIKGKLEEQRPERVKPFMTGAAEQIKHILANFKNYQFFIGENMNPDGMVALLDYREDGVTPYMIFFKDGLEMEKC
SEAP reporter (SBE) activity of MFB-F11 cells stimulated with 156 pM TGF-β1 pre-incubated with 0, 19.5 or 195 nM strep-tag-fortilin; value given is at 195 nM fortilin [1]: 6.3 A.U. | SBE-luciferase activity (firefly/Renilla) in HEK293 cells treated with TGF-β1 (1 nM) without vs with strep-tag-fortilin (3 nM); value given is with fortilin [2]: 5.4 A.U.
